The values that follow come from patent publication US20020049180A1.

This experiment addresses GST-fusion protein containing amino acids 327-517 of KIAA0175 (human) (UniProt Q14680). Put plainly: cell-based or functional assay.

In turn, “Ataxia telangiectasia mutated (ATM) (from UniProt Q13315 2-3056) (enzyme)” returned an increase of phosphorylation by ATM immunoprecipitated from gamma-irradiated cells of 2 to 3 fold.
